# T1: TLT-1 18-188 relipidated in 20:80 PS:PC vesicles (human, UniProt Q86YW5 18-188)
# T1 sequence: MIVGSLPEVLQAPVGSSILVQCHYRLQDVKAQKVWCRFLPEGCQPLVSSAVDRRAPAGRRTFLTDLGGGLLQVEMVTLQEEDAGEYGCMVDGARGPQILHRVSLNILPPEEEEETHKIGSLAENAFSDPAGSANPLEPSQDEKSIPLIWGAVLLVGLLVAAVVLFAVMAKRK
# T2: TLT-1 receptor on the surface of activated human platelets (human, UniProt Q86YW5 16-311)
# T2 sequence: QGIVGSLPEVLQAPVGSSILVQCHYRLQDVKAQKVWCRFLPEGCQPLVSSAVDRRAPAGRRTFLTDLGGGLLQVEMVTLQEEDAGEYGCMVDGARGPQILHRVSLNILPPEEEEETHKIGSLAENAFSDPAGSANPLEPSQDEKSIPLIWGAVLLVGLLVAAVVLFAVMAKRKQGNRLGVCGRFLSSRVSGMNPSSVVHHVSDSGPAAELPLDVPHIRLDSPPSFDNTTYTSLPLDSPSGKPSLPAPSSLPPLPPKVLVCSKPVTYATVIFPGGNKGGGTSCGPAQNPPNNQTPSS
# Assays:
# [1] = target: T1, TLT-1 18-188 relipidated in 20:80 PS:PC …; assay: cell-based or functional assay
# [2] = target: T2, TLT-1 receptor on the surface of …; assay: cell-based or functional assay
FVII-mediated FXa generation % Activity lipidated TLT-1 [1] [%],FVIIa-mediated FXa generation % Activity lipidated TLT-1 [1] [%],FVII-mediated FXa generation % Activity activated plts (n 1) [2] [%],FVIIa-mediated FXa generation % Activity activated plts (n 1) [2] [%],Binder
25,40,17,35,Fab 0023-LC-L7-TF;VH-CH1-HPC4 (other) light chain-linker-TF: DIVVSQSPSSLAVSAGEKVTMSCKSSQSLLNSRTRKNYLAWYQQKPGQSPKLLIYWASTRESGVPDRFTGSGSGTDFTLTISSVQAEDLAVYYCKQSYNLLTFGAGTKLELKRTVAAPSVFIFPPSDEQLKSGTASVVCLLNNFYPREAKVQWKVDNALQSGNSQESVTEQDSKDSTYSLSSTLTLSKADYEKHKVYACEVTHQGLSSPVTKSFNRGECGGGGSGGGGSGGGGSGSGGGGSGGGGSGGGGSSGTTNTVAAYNLTWKSTNFKTILEWEPKPVNQVYTVQISTKSGDWKSKCFYTTDTECDLTDEIVKDVKQTYLARVFSYPAGNVESTGSAGEPLYENSPEFTPYLETNLGQPTIQSFEQVGTKVNVTVEDERTLVRRNNTFLSLRDVFGKDLIYTLYYWKSSSSGKKTAKTNTNEFLIDVDKGENYCFSVQAVIPSRTVNRKSTDSPVECMGQEKGEFRE VH-CH1-HPC4: EVRLVESGGGLVQPGGSLKLSCATSGFTFSDYFMYWIRQTPEKRLEWVAYISNGGDSSSYPDTVKGRFTISRDNAKNTLYLQMSRLKSEDTAMYYCATNKNWDDYYDMDYWGQGTSVTVSSASTKGPSVFPLAPCSRSTSESTAALGCLVKDYFPEPVTVSWNSGALTSGVHTFPAVLQSSGLYSLSSVVTVPSSSLGTKTYTCNVDHKPSNTKVDKRVESKEDQVDPRLIDGK
24,38,14,32,Fab 0023-LC-L9-TF;VH-CH1-HPC4 (other) light chain-linker-TF: DIVVSQSPSSLAVSAGEKVTMSCKSSQSLLNSRTRKNYLAWYQQKPGQSPKLLIYWASTRESGVPDRFTGSGSGTDFTLTISSVQAEDLAVYYCKQSYNLLTFGAGTKLELKRTVAAPSVFIFPPSDEQLKSGTASVVCLLNNFYPREAKVQWKVDNALQSGNSQESVTEQDSKDSTYSLSSTLTLSKADYEKHKVYACEVTHQGLSSPVTKSFNRGECGGGGSGGGGSGGGGSGGGGSGGGGSGSGGGGSGGGGSGGGGSSGTTNTVAAYNLTWKSTNFKTILEWEPKPVNQVYTVQISTKSGDWKSKCFYTTDTECDLTDEIVKDVKQTYLARVFSYPAGNVESTGSAGEPLYENSPEFTPYLETNLGQPTIQSFEQVGTKVNVTVEDERTLVRRNNTFLSLRDVFGKDLIYTLYYWKSSSSGKKTAKTNTNEFLIDVDKGENYCFSVQAVIPSRTVNRKSTDSPVECMGQEKGEFRE VH-CH1-HPC4: EVRLVESGGGLVQPGGSLKLSCATSGFTFSDYFMYWIRQTPEKRLEWVAYISNGGDSSSYPDTVKGRFTISRDNAKNTLYLQMSRLKSEDTAMYYCATNKNWDDYYDMDYWGQGTSVTVSSASTKGPSVFPLAPCSRSTSESTAALGCLVKDYFPEPVTVSWNSGALTSGVHTFPAVLQSSGLYSLSSVVTVPSSSLGTKTYTCNVDHKPSNTKVDKRVESKEDQVDPRLIDGK
24,35,16,33,Fab 0023-LC-L8-TF;VH-CH1-HPC4 (other) light chain-linker-TF: DIVVSQSPSSLAVSAGEKVTMSCKSSQSLLNSRTRKNYLAWYQQKPGQSPKLLIYWASTRESGVPDRFTGSGSGTDFTLTISSVQAEDLAVYYCKQSYNLLTFGAGTKLELKRTVAAPSVFIFPPSDEQLKSGTASVVCLLNNFYPREAKVQWKVDNALQSGNSQESVTEQDSKDSTYSLSSTLTLSKADYEKHKVYACEVTHQGLSSPVTKSFNRGECGGGGSGGGGSGGGGSGGGGSGSGGGGSGGGGSGGGGSSGTTNTVAAYNLTWKSTNFKTILEWEPKPVNQVYTVQISTKSGDWKSKCFYTTDTECDLTDEIVKDVKQTYLARVFSYPAGNVESTGSAGEPLYENSPEFTPYLETNLGQPTIQSFEQVGTKVNVTVEDERTLVRRNNTFLSLRDVFGKDLIYTLYYWKSSSSGKKTAKTNTNEFLIDVDKGENYCFSVQAVIPSRTVNRKSTDSPVECMGQEKGEFRE VH-CH1-HPC4: EVRLVESGGGLVQPGGSLKLSCATSGFTFSDYFMYWIRQTPEKRLEWVAYISNGGDSSSYPDTVKGRFTISRDNAKNTLYLQMSRLKSEDTAMYYCATNKNWDDYYDMDYWGQGTSVTVSSASTKGPSVFPLAPCSRSTSESTAALGCLVKDYFPEPVTVSWNSGALTSGVHTFPAVLQSSGLYSLSSVVTVPSSSLGTKTYTCNVDHKPSNTKVDKRVESKEDQVDPRLIDGK

# From US20120178908A1 (Novo Nordisk, published 2012)
